How the values were obtained:
[1] = biological target: T1, human DLL3 antigen protein (Kactus Biosystems, Cat. No. DLL-HM103) (human, UniProt Q9NYJ7 27-492); assay: affinity assay with human DLL3 antigen protein (kinetics; method not restated, Biacore as in Example 10 implied)
T1 sequence: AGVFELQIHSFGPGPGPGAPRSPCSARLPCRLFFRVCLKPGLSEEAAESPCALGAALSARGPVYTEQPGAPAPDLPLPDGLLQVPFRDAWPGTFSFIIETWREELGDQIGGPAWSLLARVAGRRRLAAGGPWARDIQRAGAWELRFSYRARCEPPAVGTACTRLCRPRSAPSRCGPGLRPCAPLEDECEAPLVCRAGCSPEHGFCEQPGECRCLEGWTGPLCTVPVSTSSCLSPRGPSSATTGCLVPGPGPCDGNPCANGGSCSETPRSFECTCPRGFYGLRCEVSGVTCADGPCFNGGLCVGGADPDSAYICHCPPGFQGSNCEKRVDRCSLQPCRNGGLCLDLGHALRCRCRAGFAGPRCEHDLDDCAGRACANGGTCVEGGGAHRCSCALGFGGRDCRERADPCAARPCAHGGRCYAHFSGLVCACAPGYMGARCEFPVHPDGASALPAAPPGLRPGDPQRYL

[2] = biological target: T2, human DLL1 (Sino Biological, Cat. No. 11635-H08H) (human, UniProt O00548 18-545); assay: ELISA, plate coated with human DLL1 at 1 ug/mL, OD 450nm
T2 construct: also called family protein DLL1
T2 sequence: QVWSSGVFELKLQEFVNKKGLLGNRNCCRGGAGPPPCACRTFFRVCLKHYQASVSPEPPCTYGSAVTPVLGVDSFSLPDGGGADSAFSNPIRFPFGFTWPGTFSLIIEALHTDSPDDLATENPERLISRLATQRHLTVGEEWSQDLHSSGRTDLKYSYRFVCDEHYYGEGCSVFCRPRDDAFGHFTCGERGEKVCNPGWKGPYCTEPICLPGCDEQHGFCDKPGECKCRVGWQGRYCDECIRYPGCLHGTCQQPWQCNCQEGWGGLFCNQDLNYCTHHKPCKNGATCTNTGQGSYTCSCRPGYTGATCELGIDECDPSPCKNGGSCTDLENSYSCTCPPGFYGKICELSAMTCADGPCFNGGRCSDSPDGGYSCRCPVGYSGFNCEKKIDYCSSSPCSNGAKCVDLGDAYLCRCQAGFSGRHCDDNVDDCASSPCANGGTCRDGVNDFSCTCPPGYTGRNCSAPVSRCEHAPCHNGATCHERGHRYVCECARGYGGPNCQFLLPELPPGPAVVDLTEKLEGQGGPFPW
Method: The antigen was washed three times with PBST, 300 μL/well. The antigen was blocked with 1% BSA (in PBST), 200 μL/well, and incubated at 37° C. for 1.5 hours.
Antibodies to be tested were diluted with 1% BSA (in PBS) at a starting concentration of 100 nM, downwards by a 10-fold gradient for 7 concentrations. The plates were washed three times with PBST, 300 μL/well. The diluted antibody was added to an ELISA plate at 100 μL/well and incubated at room temperature for 2 hours. The antibodies were washed three times with PBST, 300 μL/well. The secondary antibodies (goat anti-human IgG Fc for DLL4 (HRP), 1:20000 dilution: HRP goat anti-mouse IgG (H+L) for DLL1, 1:10000 dilution) were diluted with 1% BSA in PBST. The diluted secondary antibodies were added to the ELISA plate at 100 μL/well and incubated at room temperature for 1 hour. The plates were washed 6 times with PBST, 300 μL/well. The developing solution (TMA and TMB 1:1 mixed) was prepared. The developing solution was added to the plate, 100 μL/well, and incubated in the dark for 5 min. 50 μL of ELISA stop solution was added to the plate and shaken well.
OD450s were read on the envision and plotted on the GraphPad for EC₅₀ values.

[3] = biological target: T1, human DLL3 antigen protein (Kactus …); assay: affinity assay with human DLL3 antigen protein (kinetics; method not restated, Biacore as in Example 18 implied)
[4] = biological target: T3, Cynomolgus monkey DLL3 antigen protein (Kactus Biosystems, Cat. No. CM103) (Cynomolgus monkey, UniProt Q9NYJ7 27-490 (human entry)); assay: affinity assay with Cynomolgus monkey DLL3 antigen protein (kinetics; method not restated, Biacore as in Example 18 implied)
T3 construct: also called cyno DLL3
T3 chain: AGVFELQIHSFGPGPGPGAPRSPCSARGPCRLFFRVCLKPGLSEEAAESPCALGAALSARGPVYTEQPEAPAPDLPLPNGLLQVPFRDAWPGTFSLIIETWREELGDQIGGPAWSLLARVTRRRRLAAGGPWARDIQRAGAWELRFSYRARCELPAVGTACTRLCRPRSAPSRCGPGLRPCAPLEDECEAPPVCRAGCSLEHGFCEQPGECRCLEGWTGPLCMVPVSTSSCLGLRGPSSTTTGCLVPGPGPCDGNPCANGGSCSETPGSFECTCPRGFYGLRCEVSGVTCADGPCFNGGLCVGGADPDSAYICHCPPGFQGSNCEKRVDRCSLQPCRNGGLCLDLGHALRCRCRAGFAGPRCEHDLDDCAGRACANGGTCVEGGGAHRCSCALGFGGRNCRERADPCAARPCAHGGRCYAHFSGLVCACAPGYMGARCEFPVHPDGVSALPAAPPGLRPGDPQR

B1: hDLL3-3-1 camelid-derived humanized anti-DLL3 antibody (antibody, human IgG1, V domains shown)
VH: EVQLVESGGGLVQPGGSLRLSCAASTYTISSGYMGWFRQAPGKEREGVAAIYIGGSTTLYADSVKGRFTISRDNSKNTLYLQMNSLRAEDTAVYYCAAQLRPNSAYHPLDGRKYNYWGQGTLVTVSS
Kd [1]: 0.45 nM | koff [1]: 0.000614 s⁻¹ | kon [1]: 1.36e+06 M⁻¹ s⁻¹ | binding result [2]: no binding (tested: 100 nM)

B2: hDLL3-3-2 camelid-derived humanized anti-DLL3 antibody (antibody, V domains shown)
VH: EVQLVESGGGLVQPGGSLRLSCKSPTYTISSGYMGWFRQAPGKEREGVAAIYIGGSTTLYADSVKGRFTISRDNSKNTLYLQMNSLRAEDTAVYYCAAQLRPNSAYHPLDGRKYNYWGQGTLVTVSS
binding result [2]: no binding (tested: 100 nM)

B3: H2-39E2D11 mouse hybridoma-derived humanized anti-DLL3 antibody (antibody, V domains shown)
VH: QVQLVQSGAEVKKPGASVKVSCKASGYTFISYWITWVRQAPGQGLEWMGDIYPGSGSTTNYNEKFKSRVTMTRDTSTSTVYMELSSLRSEDTAVYYCARETTVGGAYAMDYWGQGTLVTVSS
VL: EIVLTQSPATLSLSPGERATLSCRASQSINNNLHWYQQKPGQAPRLLIKYVSQSISGIPARFSGSGSGTDFTLTISSLEPEDFAVYYCQQTNSWPLTFGGGTKLEIK
Kd [3]: 0.739 nM | koff [3]: 0.000134 s⁻¹ | kon [3]: 181000 M⁻¹ s⁻¹ | Kd [4]: 0.143 nM | koff [4]: 3.16e-05 s⁻¹ | kon [4]: 221000 M⁻¹ s⁻¹

B4: hDLL3-122 camelid-derived humanized anti-DLL3 antibody (antibody, V domains shown)
VH: EVQLVESGGGLVQPGGSLRLSCAASGDTYRSYCMGWFRQAPGKEREGVADIVSDGSTSYADSVKGRFTISRDNSKNTLYLQMNSLRAEDTAVYYCAVDRGGSGGYCYTGRYDYWGQGTLVTVSS
binding result [2]: no binding (tested: 100 nM)

B5: hDLL3-26 camelid-derived humanized anti-DLL3 antibody (antibody, V domains shown)
VH: EVQLVESGGGLVQPGGSLRLSCAASGDIYSSSYVGWFRQAPGKEREGVAIIYTSGDSTYYADSVKGRFTISRDNSKNTLYLQMNSLRAEDTAVYYCAARFAIDNSNYWGQGTLVTVSS
binding result [2]: no binding (tested: 100 nM)

— patent US20240239878A1 (SHANGHAI QILU PHARMACEUTICAL RESEARCH AND DEVELOPMENT CENTRE, published 2024)
